Laboratory results taken from patent US20220289857A1 (Kyowa Kirin, published 2022).
Where a chain is given by its changes, count along the chain named. Names and notes keep the numbering of the source.

T1: human Fn14 Subdomain 2 peptide (AA51-70), biotinylated (human, added C-terminal Lys carries Ahx-biotin; C-terminal amide)
T1 peptide: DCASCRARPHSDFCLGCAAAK

T2: human Fn14 (full length) on cells (human, UniProt Q9NP84 28-129)
T2 sequence: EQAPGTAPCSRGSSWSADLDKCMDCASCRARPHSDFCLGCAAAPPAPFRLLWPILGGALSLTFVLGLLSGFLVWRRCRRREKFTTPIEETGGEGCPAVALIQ

T3: human Fn14 Subdomain 1 peptide (AA30-50), biotinylated (human, added C-terminal Lys carries Ahx-biotin; C-terminal amide)
T3 peptide: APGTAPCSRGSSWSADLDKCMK

B1: 41c recombinant mouse IgG1(D265A), kappa antibody (A291/A290) (antibody, V domains shown)
VH: EVQLQQSGPELVKPGASVKMSCKASGYTFTDYNMHWVKQSHGKSLEWIGYINPNNGGTNYNQKFKGKATLTVNKSSRSAYMEFRSLTSEDSAVYYCASSGWFTYWGQGTLVTVSA
VL: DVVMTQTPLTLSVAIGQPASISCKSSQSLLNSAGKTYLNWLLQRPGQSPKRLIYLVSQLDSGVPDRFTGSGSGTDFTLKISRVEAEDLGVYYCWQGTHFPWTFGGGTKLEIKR
B2: R35B9-His Fab (recombinant, bacterial, for crystallization) (Fab, V domains shown)
VH: B1 VH with T28I, T30Q, Y50S, N54R, G57W
VL: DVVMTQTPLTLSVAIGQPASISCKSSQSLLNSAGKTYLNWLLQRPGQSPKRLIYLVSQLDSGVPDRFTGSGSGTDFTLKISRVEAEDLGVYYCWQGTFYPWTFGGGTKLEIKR
notes: also called R35B9 Fab-His
B3: 41c-His Fab (recombinant, bacterial, for crystallization) (Fab, V domains shown)
VH: B1 VH
VL: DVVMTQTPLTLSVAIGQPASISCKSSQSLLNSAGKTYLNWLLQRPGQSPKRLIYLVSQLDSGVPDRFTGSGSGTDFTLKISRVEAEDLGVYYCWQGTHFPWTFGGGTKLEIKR
notes: Two extra N-terminal residues on each chain (Leu-Glu heavy, Ser-Arg light); C-terminal linker and 6xHis on the heavy chain; also called His-tagged 41c Fab

Columns and labels:
[1] = target: T1, human Fn14 Subdomain 2 peptide …; test: biolayer interferometry (ForteBio Octet); biotinylated peptide on streptavidin biosensor, response at 120 s of association
Procedure: (§1) A ForteBio Octet Qke instrument (ForteBio) was used to measure the ability of purified antibodies to bind Fn14 peptides. The assays were performed at 30° C. in 96-well half area plates (Grenier, cat# 675076), with agitation set to 1000 rpm, in kinetic buffer (provided in the assay kit) to minimize nonspecific interactions. Biosensor tips were equilibrated in kinetic buffer for 600 s prior to use. Soluble biotinylated peptides (20 μg/ml, Subdomain 1 (AA30-50): […]-[K-Ahx-biotin]-amide (SEQ ID NO: 182) and Subdomain 2 (AA51-70): […]-[K-Ahx-biotin]-amide (SEQ ID NO: 183) synthesized by 21′ Century Biochemicals) in kinetic buffer were immobilized on streptavidin-coated biosensors (ForteBio, cat# 18-5020) for 300 seconds. […] Purified antibodies (20 μg/m1) were allowed to bind the immobilized peptides. Association was measured for 300 seconds, using the high sensitivity kinetics setting. To characterize the binding properties of the antibody candidates, the response (nm) at t =120 seconds from the start of the association step was recorded. All values were compared to a control sample (isotype antibody).

[2] = target: T2, human Fn14 (full length) on cells; test: cell-based or functional assay
[3] = target: T3, human Fn14 Subdomain 1 peptide …; test: biolayer interferometry (ForteBio Octet); biotinylated peptide on streptavidin biosensor, antibody in solution, response at 120 s of association
Procedure: as §1

[4] = target: T4, untagged human Fn14 extracellular domain (aa 28-75), SUMO-cleaved (human, UniProt Q9NP84 28-75); test: co-crystal structure
T4 construct: Electron density seen for residues 32-68; also called Fn14 (crystallization)
Procedure: Purified Fn14 and His-tagged 41c Fab or R35B9 Fab proteins were mixed in a 1:1 stoichiometric ratio, concentrated to 1 mg/mL and then subjected to crystallization. Initial crystallization trials were performed in a 96-well format using a nano-liter dispensing liquid handling robot (Phoenix, Art Robbins Ltd.) while mixing 0.15 μL protein with 0.15 μL precipitant from different commercially available crystallization screens (JCSG core+and JCSG core 1 screens). Over 200 crystallization conditions were tested using the sitting drop vapor diffusion method and crystallization trails were carried out at both 4° C. and 22° C. Optimization of all crystallization conditions was performed manually by both hanging drop and sitting drop methods. Crystals were obtained in various conditions containing PEG 3350 or PEG 6000 as the common precipitant and were grown over 3 days. […]
The structure had good geometry with 4 residues (0.89%) as outliers and 97.6% residues in favored region of the Ramachandran plot. Correspondingly, the structure of Fn14 -R35B9-His Fab complex was determined by molecular replacement using the phase information obtained from Fn14-41c-His Fab complex and the structure was refined to 2.3 Å with residual factors R/Rfree=20.9/23.3.

| Binder | binding result [1] | ICAM-1 MFI on HRMC, 250 ng/mL rhTWEAK, mAb 0.1 µg/mL [2] [MFI] | binding result [3] | binding result [4] |
| --- | --- | --- | --- | --- |
| B1 | no binding (tested: 20 µg/mL) | 13100 | binds | – |
| B2 | – | – | – | binds |
| B3 | – | – | – | binds |
